Measurements: patent publication US20230034768A1 (BIOSION, published 2023)
Like-named read-outs stand apart in the source and are kept apart here.

Columns and labels:
[1] = molecular target: T1, human RANKL-his protein (prepared in-house with SEQ ID NO: 43) (human, UniProt O14788 136-317); assay: Biacore T200 SPR, antibody captured by anti-human IgG, human RANKL-his in flow, 1:1 fit
T1 construct: also called recombinant human RANKL-his
T1 chain: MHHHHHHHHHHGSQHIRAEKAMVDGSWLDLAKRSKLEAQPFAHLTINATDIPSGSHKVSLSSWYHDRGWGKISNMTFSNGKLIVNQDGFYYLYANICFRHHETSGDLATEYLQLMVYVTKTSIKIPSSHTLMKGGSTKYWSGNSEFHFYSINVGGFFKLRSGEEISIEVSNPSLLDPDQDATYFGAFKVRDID
Experimental: (§1) Briefly, goat anti-human IgG (GE healthcare, Cat #BR100839, Human Antibody Capture Kit) was covalently linked to a CM5 chip (carboxy methyl dextran coated chip from GE healthcare #BR10030) via primary amines, using a standard amine coupling kit provided by Biacore. Un-reacted moieties on the biosensor surface were blocked with ethanolamine. […] The antigen-antibody association kinetics was followed for 2 minutes and the dissociation kinetics was followed for 10 minutes. The association and dissociation curves were fit to a 1:1 Langmuir binding model using BIAcore evaluation software.

[2] = molecular target: T2, Recombinant human RANKL-his protein (R&D, Cat #6449-TEC-010) (human, UniProt O14788 140-317, limits assumed); assay: cell-based or functional assay
T2 sequence (looked up): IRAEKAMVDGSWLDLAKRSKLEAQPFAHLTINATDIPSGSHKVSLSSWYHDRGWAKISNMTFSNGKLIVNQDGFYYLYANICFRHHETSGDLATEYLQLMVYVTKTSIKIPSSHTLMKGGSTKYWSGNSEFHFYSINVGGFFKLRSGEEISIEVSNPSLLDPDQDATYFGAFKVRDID

[3] = molecular target: T3, cynomolgus monkey RANKL-his protein (prepared in-house with SEQ ID NO.:42) (cynomolgus monkey, UniProt O14788 136-317 (human entry), limits assumed); assay: Biacore T200 SPR, antibody captured by anti-human IgG, cynomolgus RANKL-his in flow, 1:1 fit
T3 construct: also called Cynomolgus RANKL
T3 chain: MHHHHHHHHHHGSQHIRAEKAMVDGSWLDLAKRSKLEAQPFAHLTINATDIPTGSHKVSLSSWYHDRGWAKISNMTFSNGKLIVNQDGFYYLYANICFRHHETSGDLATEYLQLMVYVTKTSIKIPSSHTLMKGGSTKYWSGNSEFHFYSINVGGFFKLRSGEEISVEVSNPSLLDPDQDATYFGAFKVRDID
Experimental: as §1

[4] = molecular target: T4, biotin-labeled human RANKL-Fc protein (prepared in house, SEQ ID NO.: 40) (human, biotin-labeled (sites not given)); assay: capture ELISA: captured antibody, biotin-labeled human RANKL-Fc, OD(450-630)
T4 construct: also called RANKL-Fc-biotin
Experimental: (§2) Plates were washed once with wash buffer (PBS+0.05% v/v Tween-20, PBST) and then blocked with 200 μl/well blocking buffer (5% w/v non-fatty milk in PBST) for 2 hours at 37° C. […] After a final wash, plates were incubated with 100 μl/well ELISA substrate TMB (Innoreagents, Cat #TMB-S-002) at room temperature. The reaction was stopped in 3-10 minutes with 50 μl/well 1M H₂SO₄, and the absorbance of each well was read on a microplate reader using dual wavelengths mode with 450 nm for TMB and 630 nm as the reference wavelength. The OD (450-630) values were plotted against antibody concentration. Data were analyzed using Graphpad Prism software and EC₅₀ values were reported.
For the capture ELISA, 96-well micro plates were coated with 2 μg/ml goat anti-human IgG (AffiniPure Goat Anti-Human IgG, F(ab′)₂ fragment specific, Jackson Immunoresearch, Cat #109-005-097) instead of AffiniPure Goat Anti-Mouse IgG, Fcγ fragment specific, 100 μl/well.

[5] = molecular target: T2, Recombinant human RANKL-his protein …; assay: cell-based or functional assay; remark: listed apart in the source
[6] = molecular target: T4, biotin-labeled human RANKL-Fc protein …; assay: competitive ELISA: antibody blocks biotin-labeled human RANKL-Fc binding to coated human RANK-Fc
Experimental: Briefly, human RANK-Fc proteins (prepared in house, SEQ ID NO.: 41) were coated on 96-well micro plates at 2.0 μg/mL in PBS, 100 μl/well, and incubated overnight at 4° C. The next day, plates were washed with wash buffer (PBS+0.05% w/v Tween-20, PBST), and blocked with 5% w/v non-fatty milk in PBST, 200 μl/well, for 2 hours at 37° C.
Plates were washed 4 times using wash buffer, and added and incubated with 100 μl/well of streptavidin conjugated HRP (1:10000 dilution in PBST buffer, Jackson ImmunoResearch Laboratories, Inc., Cat #016-030-084) for 40 minutes at 37° C. Plates were washed again using wash buffer. Finally, TMB was added and the reaction was stopped using 1M H₂SO₄, and the absorbance of each well was read on a microplate reader using dual wavelengths mode with 450 nm for TMB and 630 nm as the reference wavelength. The OD (450-630) values were plotted against antibody concentration. Data were analyzed using Graphpad Prism software and IC₅₀ values were reported.

[7] = molecular target: T4, biotin-labeled human RANKL-Fc protein …; assay: competitive ELISA: antibody blocks biotin-labeled human RANKL-Fc binding to coated benchmark denosumab
[8] = molecular target: T1, human RANKL-his protein (prepared …); assay: Octet BLI, antibody from cell supernatant captured, human RANKL-his in solution
Experimental: (§3) Briefly, AHC/AMC biosensors (anti-human/anti-mouse IgG Fc capture, ForteBio) were presoaked with 10 mM glycine (pH 1.5) for 3 seconds, and then dipped in a well with running buffer (0.5% w/v BSA in PBST) for 3 seconds, the soaking and dipping steps were repeated for three times. […] A new baseline was run for 180 seconds in another well with HBS-EP⁺. […] Finally, sensors were presoaked with 10 mM glycine (pH 1.5) for 3 seconds, and then dipped in a well with running buffer for 3 seconds, the soaking and dipping steps repeated for three times. The association and dissociation curves were fit to a 1:1 Langmuir binding model using Octet evaluation software.
(§4) The chimeric antibody when tested was in HBS-EP⁺ at 5 μg/ml concentration.

[9] = molecular target: T2, Recombinant human RANKL-his protein …; assay: cell-based or functional assay; remark: listed apart in the source
[10] = molecular target: T4, biotin-labeled human RANKL-Fc protein …; assay: competitive ELISA: antibody blocks biotin-labeled human RANKL-Fc binding to coated human RANK-Fc; remark: listed apart in the source
[11] = molecular target: T1, human RANKL-his protein (prepared …); assay: Octet BLI, antibody captured, human RANKL-his in solution
Experimental: as §3
(§5) Cell supernatants were harvested after six days in shaking flasks, spun down to pellet cells, and then chimeric antibodies were purified from cell supernatants as described above. The purified antibodies were tested in the capture ELISA, competitive ELISA assay and Octet affinity test following the protocols in the foregoing Examples.

[12] = molecular target: T4, biotin-labeled human RANKL-Fc protein …; assay: capture ELISA: captured antibody, biotin-labeled human RANKL-Fc, OD(450-630); remark: listed apart in the source
Experimental: as §2, §5

[13] = molecular target: T1, human RANKL-his protein (prepared …); assay: Octet BLI, chimeric antibody at 5 ug/ml captured, human RANKL-his in solution
Experimental: as §3, §4

[14] = molecular target: T4, biotin-labeled human RANKL-Fc protein …; assay: competitive ELISA: antibody blocks biotin-labeled human RANKL-Fc binding to coated benchmark denosumab; remark: listed apart in the source

B1: humanized antibody huD1A1-V2 (antibody, human IgG4 S228P, kappa, V domains shown)
VH: EVQLVESGGGLVKPGGSLRLSCAASGFTFRNYAMSWVRQAPGKGLEWVSGISSGGTYTYYPDTVKGRFTISRDNAKNSLYLQMNSLRAEDTAVYYCARRDYGDVYEWYFDVWGKGTTVTVSS
VL: DIQMTQSPSSLSASVGDRVTITCKASQDVRTSIAWYQQKPGKAPKLLIYSASYRYTGVPSRFSGSGSGTDFTFTISSLQPEDIATYYCQQHYSSPWTFGGGTKVEIKR
notes: Human IgG4 / kappa
Kd [1]: 0.134 nM
IC50, RANKL-induced osteoclast differentiation of RAW264.7 cells (pNPP, OD405) [2]: ~1.42 nM
Kd [3]: 0.42 nM
EC50 [4]: 0.2 nM
IC50, RANKL-induced osteoclast differentiation of RAW264.7 cells (pNPP, OD405) [5]: ~1.45 nM
IC50 [6]: 0.154 nM
IC50 [7]: 0.444 nM
Kd [8]: < 0.001 nM
koff [8]: < 1e-07 s⁻¹
kon [8]: 112000 M⁻¹ s⁻¹

B2: humanized antibody huD1A1-V5 (antibody, human IgG4 S228P, kappa, V domains shown)
VH: EVQLVESGGGLVKPGGSLRLSCAASGFTFRNYAMSWVRQAPGKGLEWVSGISSGGTYTYYPDTVKGRFTISRDNAKNSLYLQMNSLRAEDTAVYYCARRDYGDVYEWYFDVWGKGTTVTVSS
VL: DIQMTQSPSSLSASVGDRVTITCKASQDVRTSIAWYQQKPGKSPKLLIYSASYRYTGVPSRFSGSGSGTDFTFTISSLQPEDLATYYCQQHYSSPWTFGGGTKVEIKR
notes: Human IgG4 / kappa
Kd [1]: 0.179 nM
IC50, RANKL-induced osteoclast differentiation of RAW264.7 cells (pNPP, OD405) [2]: ~1.42 nM
Kd [3]: 0.414 nM
EC50 [4]: 0.182 nM
IC50, RANKL-induced osteoclast differentiation of RAW264.7 cells (pNPP, OD405) [5]: 1.51 nM
IC50 [6]: 0.139 nM
IC50 [7]: 0.338 nM
Kd [8]: < 0.001 nM
koff [8]: < 1e-07 s⁻¹
kon [8]: 120000 M⁻¹ s⁻¹

B3: Chimeric D1A1 (antibody, human IgG2, kappa, V domains shown)
VH: EVQLVESGGGLVKSGGSLKLSCAASGFTFRNYAMSWVRQTPEKRLEWVAGISSGGTYTYYPDTVKGRFTISRDNARNTLFLQMSSLRSEDTAMYYCARRDYGDVYEWYFDVWGTGTTVTVSS
VL: DIVMTQSHKFMSTSVGDRVSITCKASQDVRTSIAWYQQKPGQSPNLLIYSASYRYTGVPDRFTGSGSGTDFTFTISSVQAEDLAVYYCQQHYSSPWTFGGGTKLEIKR
notes: Mouse variable regions on human IgG2 / kappa; also called chimeric antibody D1A1; chimeric D1A1 antibody
Kd [1]: 0.149 nM
Kd [3]: 0.42 nM
EC50 [4]: 0.257 nM
IC50, RANKL-induced osteoclast differentiation of RAW264.7 cells (pNPP, OD405) [5]: ~1.42 nM
IC50, RANKL-induced osteoclast differentiation of RAW264.7 cells (pNPP, OD405) [9]: 1.39 nM
IC50 [10]: 0.112 nM
Kd [11]: 0.197 nM
EC50 [12]: 0.624 nM
IC50 [6]: 0.155 nM
Kd [13]: < 0.001 nM
koff [13]: < 1e-07 s⁻¹
kon [13]: 128000 M⁻¹ s⁻¹
IC50 [7]: 0.441 nM
IC50 [14]: 0.473 nM
